One experiment addresses Sho1 SH3 (SHO1_YEAST), P40073. Kind of experiment: SPOT array.
Sho1 SH3 (SHO1_YEAST), P40073, sequence (P40073 295-366): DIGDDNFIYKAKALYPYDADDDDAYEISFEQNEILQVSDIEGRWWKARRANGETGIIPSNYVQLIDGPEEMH
On to NSPPVYPKRIRHFE [22-35 Hypothetical ORF], for which the normalised SPOT signal, Boehringer light units (BLU); mean over the file's lines of this peptide came to 177.

With NSLPSSPKKQPARN [173-186 Hypothetical ORF], the normalised SPOT signal, Boehringer light units (BLU); mean over the file's lines of this peptide worked out at 198.

For NLKPERPSKVSFEM [548-561 " Non-membrane-embedded, PEST sequence-containing protein"], the normalised SPOT signal, Boehringer light units (BLU); mean over the file's lines of this peptide is 339.

NKIPPKPRKVLQLL [93-106 Ribosomal protein L7A (L6A) (rp11) (YL8)] came in with a normalised SPOT signal, Boehringer light units (BLU); mean over the file's lines of this peptide of 152.

For NYIPPDPPKDIQLN [239-252 Hypothetical ORF], the normalised SPOT signal, Boehringer light units (BLU); mean over the file's lines of this peptide was 38.1.

On to NMVPLNPNRIIPDE [189-202 Product of gene unknown], for which the normalised SPOT signal, Boehringer light units (BLU); mean over the file's lines of this peptide was 130.

NVDPASPWRHELLS [76-89 Hypothetical ORF] had a normalised SPOT signal, Boehringer light units (BLU); mean over the file's lines of this peptide of 102.

In turn, NLDPNPPVRGENLT [61-74 Hypothetical ORF] came in with a normalised SPOT signal, Boehringer light units (BLU); mean over the file's lines of this peptide of 206.

In the case of PKDPSSPQRDEILT [27-40 Hypothetical ORF], the normalised SPOT signal, Boehringer light units (BLU); mean over the file's lines of this peptide turned out to be 130.

In the case of PFLPVLPQKPGGVR [35-48 succinate dehydrogenase membrane anchor subunit], the normalised SPOT signal, Boehringer light units (BLU); mean over the file's lines of this peptide was 1380.

PIMPTLPPRPYITI [537-550 Hypothetical ORF] had a normalised SPOT signal, Boehringer light units (BLU); mean over the file's lines of this peptide of 228.

NVQPRKPSRVHSRN [634-647 Hypothetical ORF] returned a normalised SPOT signal, Boehringer light units (BLU); mean over the file's lines of this peptide of 82.5.

In the case of PFIPKFPSRESVES, the normalised SPOT signal, Boehringer light units (BLU); mean over the file's lines of this peptide worked out at 163.

For NIQPNIPLRSYRYL [782-795 Hypothetical ORF], the normalised SPOT signal, Boehringer light units (BLU); mean over the file's lines of this peptide was 117.

The molecule NIQPDLPPRKIMIP [90-103 Hypothetical ORF] gave a normalised SPOT signal, Boehringer light units (BLU); mean over the file's lines of this peptide of 197.

NKVPTNPKKFKKAP [326-339 " involved in silencing at telomeres, HML, and HMR"] gave a normalised SPOT signal, Boehringer light units (BLU); mean over the file's lines of this peptide of 291.

For the molecule NNNPVPPQKINQPP [198-211 Hypothetical ORF], the normalised SPOT signal, Boehringer light units (BLU); mean over the file's lines of this peptide turned out to be 190.

In a further experiment the target is T1, Abp1 SH3 (ABP1_YEAST), P15891.
T1 chain: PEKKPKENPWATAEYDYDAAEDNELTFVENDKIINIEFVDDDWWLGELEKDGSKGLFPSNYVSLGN
Kind of experiment: SPOT array.
In turn, ILTSLPVPPPPVRP [YDL140C 235-248] yielded a normalised SPOT signal, Boehringer light units (BLU); mean over the file's lines of this peptide of 208.

WETWLYKPGMPPRP [YNL045W 490-503] came in with a normalised SPOT signal, Boehringer light units (BLU); mean over the file's lines of this peptide of 310.

As to KLAILTSPFEPPKP [YJR064W 268-281], the normalised SPOT signal, Boehringer light units (BLU); mean over the file's lines of this peptide is 40.4.

A further experiment deals with T2, Myo5 SH3 (MYO5_YEAST), Q04439.
T2 chain: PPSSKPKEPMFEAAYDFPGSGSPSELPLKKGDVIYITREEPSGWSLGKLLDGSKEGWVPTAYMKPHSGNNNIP
The experiment can be described thus: SPOT array.
ILTSLPVPPPPVRP [YDL140C 235-248] gave a normalised SPOT signal, Boehringer light units (BLU); mean over the file's lines of this peptide of 617.

The molecule WETWLYKPGMPPRP [YNL045W 490-503] displayed a normalised SPOT signal, Boehringer light units (BLU); mean over the file's lines of this peptide of 255.

Molecule KLAILTSPFEPPKP [YJR064W 268-281] had a normalised SPOT signal, Boehringer light units (BLU); mean over the file's lines of this peptide of 173.

Values taken from article PMC314469, “Protein Interaction Networks by Proteome Peptide Scanning” (PLoS Biology, 2004).
